Experimental data reported in patent US20200108156.

Experiments:
[1] = tested on: Cy5.5-NFP2 nanofiber peptide construct, mPEG2000 KLDLKLDLKLDLK-Cy5.5
[2] = tested on: DM1-MCC-NFP2 (DM1-loaded NFP2 nanofiber)
[3] = tested on: Cy5.5-NFP1 nanofiber peptide construct, mPEG2000-KKKKKKKLDLKLDLKLDLK-Cy5.5
[4] = tested on: DM1-MCC-NFP1 (DM1-loaded NFP1 nanofiber)
[5] = tested on: FITC-NFP2 nanofiber peptide construct, mPEG2000-KLDLKLDLKLDLK(FITC)
[6] = tested on: FITC-NFP1 nanofiber peptide construct, mPEG2000-KKKKKKKLDLKLDLKLDLK(FITC)

With “Cathepsin B (CathB), purified from bovine spleen (EMD Millipore)” the “fluorescence recovery after CathB activation” value [1] was “the fluorescence of Cy5.5-NFP2 was only slightly increased after exposure to CathB”, the “drug metabolites after CathB digestion (HPLC, MALDI-TOF)” value [2] was “For DM1-MCC-NFP2, no drug metabolite was identified during CathB digestion due to its slow release property” and the “fluorescence recovery after CathB activation” value [3] was “CathB digestion of Cy5.5-NFP1 led to the release of Cy5.5-peptide fragments, thus resulting in the recovery of the fluorescence signal”. For the same substance, the “drug metabolites after CathB digestion (HPLC, MALDI-TOF)” value [4] was “After CathB digestion, Lys-MCC-DM1 ... was identified in DM1-MCC-NFP1”, the “HPLC of nanofibers after 24 h CathB digestion (enzyme cleavage)” value [5] was “only one fragment was identified when FITC-NFP2 was subjected to CathB digestion” and the “HPLC of nanofibers after 24 h CathB digestion (enzyme cleavage)” value [6] was “CathB digested FITC-NFP1 into multiple peptide fragments after 24 hours”.
